Values after ≈ are worked out from the molar mass of the structure shown.
Assays:
[1] = test system: S. aureus (MRSA strain ATCC BAA-42); assay: Murine model of S. aureus pneumonia; conditions: 14 days; CF-301 i.v., DAP s.c.; once daily
MRSA MW2 [2] = assay: Combination MIC assay in 7.5% surfactant; set-up: MIC alone / MIC combo: unit not given beside the values; conditions: for MIC combo: CF-301 and daptomycin in combination; for MIC alone: single agent
MRSA BAA-1720 = assay: Combination MIC assay in 7.5% surfactant; set-up: MIC alone / MIC combo: unit not given beside the values; conditions: for MIC combo: CF-301 and daptomycin in combination; for MIC alone: single agent
MRSA NRS-192 = assay: Combination MIC assay in 7.5% surfactant; set-up: MIC alone / MIC combo: unit not given beside the values; conditions: for MIC combo: CF-301 and daptomycin in combination; for MIC alone: single agent
MRSA NRS-265 = assay: Combination MIC assay in 7.5% surfactant; set-up: MIC alone / MIC combo: unit not given beside the values; conditions: for MIC combo: CF-301 and daptomycin in combination; for MIC alone: single agent
MRSA NRS-255 = assay: Combination MIC assay in 7.5% surfactant; set-up: MIC alone / MIC combo: unit not given beside the values; conditions: for MIC combo: CF-301 and daptomycin in combination; for MIC alone: single agent
MSSA ATCC 29213 = assay: Combination MIC assay in 7.5% surfactant; set-up: MIC alone / MIC combo: unit not given beside the values; conditions: for MIC combo: CF-301 and daptomycin in combination; for MIC alone: single agent
MSSA NRS-131 = assay: Combination MIC assay in 7.5% surfactant; set-up: MIC alone / MIC combo: unit not given beside the values; conditions: for MIC combo: CF-301 and daptomycin in combination; for MIC alone: single agent
MSSA ATCC 25923 = assay: Combination MIC assay in 7.5% surfactant; set-up: MIC alone / MIC combo: unit not given beside the values; conditions: for MIC combo: CF-301 and daptomycin in combination; for MIC alone: single agent
MSSA ATCC 49521 = assay: Combination MIC assay in 7.5% surfactant; set-up: MIC alone / MIC combo: unit not given beside the values; conditions: for MIC combo: CF-301 and daptomycin in combination; for MIC alone: single agent
MSSA Newman = assay: Combination MIC assay in 7.5% surfactant; set-up: MIC alone / MIC combo: unit not given beside the values; conditions: for MIC combo: CF-301 and daptomycin in combination; for MIC alone: single agent
[3] = test system: MRSA, MSSA, and VISA strains of S. aureus; assay: MIC by broth microdilution in increasing surfactant, strains pooled; conditions: for Antimicrobial activity in the presence of pulmonary (bovine-derived) surfactant: MRSA, MSSA and VISA strains
[4] = test system: methicillin resistant strain (MRSA) MW2; assay: MIC by broth microdilution, with and without bovine-derived surfactant
[5] = test system: methicillin-susceptible (MSSA) strain ATCC 29213; assay: as above
[6] = test system: 5 strains of MRSA and 5 strains of MSSA; assay: Combination MIC assay in 7.5% surfactant, strains pooled; conditions: CF-301 and DAP combined, across strains
MRSA MW2 [7] = assay: BODIPY-labeled daptomycin binding assay, fluorescence microscopy; conditions: CF-301 8 μg/ml; BODIPY-DAP 4 μg/ml; 7.5% surfactant
VISA ATCC 700699 = assay: as above; conditions: CF-301 4 μg/ml; DAP^BD 4 μg/ml; 30 min; 7.5% surfactant

`CCCCCCCCCC(=O)N[C@@H](Cc1c[nH]c2ccccc12)C(=O)N[C@H](CC(N)=O)C(=O)N[C@@H](CC(=O)O)C(=O)N[C@@H]1C(=O)NCC(=O)N[C@@H](CCCN)C(=O)N[C@@H](CC(=O)O)C(=O)N[C@H](C)C(=O)N[C@@H](CC(=O)O)C(=O)NCC(=O)N[C@H](CO)C(=O)N[C@@H]([C@H](C)CC(=O)O)C(=O)N[C@@H](CC(=O)c2ccccc2N)C(=O)O[C@@H]1C` [DAP, daptomycin, reference compound] was tested, and the “Survival pattern, comparison between treatment groups” value [1] was “same survival pattern as those treated with saline”, the “Fold reduction (MIC alone vs combo)” value (MRSA MW2 [2]) was 1024 fold and the MIC combo (MRSA MW2 [2]) was 0.25. For the same molecule, the MIC alone (MRSA MW2 [2]) was 256, the “Fold reduction (MIC alone vs combo)” value (MRSA BAA-1720) was 1024 fold and the MIC combo (MRSA BAA-1720) was 0.25. For the same molecule, the MIC alone (MRSA BAA-1720) was 256, the “Fold reduction (MIC alone vs combo)” value (MRSA NRS-192) was 512 fold and the MIC combo (MRSA NRS-192) was 0.5. The MIC alone (MRSA NRS-192) was 256, the “Fold reduction (MIC alone vs combo)” value (MRSA NRS-265) was 1024 fold and the MIC combo (MRSA NRS-265) was 0.25. The MIC alone (MRSA NRS-265) was 256, the “Fold reduction (MIC alone vs combo)” value (MRSA NRS-255) was 1024 fold and the MIC combo (MRSA NRS-255) was 0.5. The MIC alone (MRSA NRS-255) was 512, the “Fold reduction (MIC alone vs combo)” value (MSSA ATCC 29213) was 512 fold and the MIC combo (MSSA ATCC 29213) was 0.5. For the same molecule, the MIC alone (MSSA ATCC 29213) was 256, the “Fold reduction (MIC alone vs combo)” value (MSSA NRS-131) was 1024 fold and the MIC combo (MSSA NRS-131) was 0.5. The MIC alone (MSSA NRS-131) was 512, the “Fold reduction (MIC alone vs combo)” value (MSSA ATCC 25923) was 512 fold and the MIC combo (MSSA ATCC 25923) was 0.5. For the same molecule, the MIC alone (MSSA ATCC 25923) was 256, the “Fold reduction (MIC alone vs combo)” value (MSSA ATCC 49521) was 512 fold and the MIC combo (MSSA ATCC 49521) was 0.5. For the same molecule, the MIC alone (MSSA ATCC 49521) was 256, the “Fold reduction (MIC alone vs combo)” value (MSSA Newman) was 512 fold and the MIC combo (MSSA Newman) was 0.5. The MIC alone (MSSA Newman) was 256, the “Antimicrobial activity in the presence of pulmonary (bovine-derived) surfactant” value [3] was “not active” and the MIC increase ([3]; strain not specified, surfactant concentrations 1.25-15%) was 256 fold. The MIC ([4]; Staphylococcus aureus, MRSA, 24 h, read-out: Starting MIC (without surfactant)) was 1 µg/mL (≈ 0.617 µM) and the MIC ([5]; Staphylococcus aureus, ATCC29213|MSSA, 24 h, read-out: Starting MIC (without surfactant)) was 1 µg/mL (≈ 0.617 µM).

B1: CF-301: Bacteriophage lysin polypeptide, SEQ ID NO: 1 (GenBank accession ZP 03625529), antimicrobial agent against Staphylococcus aureus (protein, listed as Streptococcus suis)
chain: MTTVNEALNNVRAQVGSGVSVGNGECYALASWYERMISPDATVGLGAGVGWVSGAIGDTISAKNIGSSYNWQANGWTVSTSGPFKAGQIVTLGATPGNPYGHVVIVEAVDGDRLTILEQNYGGKRYPVRNYYSAASYRQQVVHYITPPGTVAQSAPNLAGSRSYRETGTMTVTVDALNVRRAPNTSGEIVAVYKRGESFDYDTVIIDVNGYVWVSYIGGSGKRNYVATGATKDGKRFGNAWGTFK
B1 was tested, and the “Fold reduction (MIC alone vs combo)” value (MRSA MW2 [2]) was 32 fold, the MIC combo (MRSA MW2 [2]) was 2 and the MIC alone (MRSA MW2 [2]) was 64. The “Fold reduction (MIC alone vs combo)” value (MRSA BAA-1720) was 32 fold, the MIC combo (MRSA BAA-1720) was 2 and the MIC alone (MRSA BAA-1720) was 64. For the same molecule, the “Fold reduction (MIC alone vs combo)” value (MRSA NRS-192) was 16 fold, the MIC combo (MRSA NRS-192) was 4 and the MIC alone (MRSA NRS-192) was 64. For the same molecule, the “Fold reduction (MIC alone vs combo)” value (MRSA NRS-265) was 16 fold, the MIC combo (MRSA NRS-265) was 4 and the MIC alone (MRSA NRS-265) was 64. The “Fold reduction (MIC alone vs combo)” value (MRSA NRS-255) was 16 fold, the MIC combo (MRSA NRS-255) was 2 and the MIC alone (MRSA NRS-255) was 64. For the same molecule, the “Fold reduction (MIC alone vs combo)” value (MSSA ATCC 29213) was 32 fold, the MIC combo (MSSA ATCC 29213) was 4 and the MIC alone (MSSA ATCC 29213) was 128. The “Fold reduction (MIC alone vs combo)” value (MSSA NRS-131) was 16 fold, the MIC combo (MSSA NRS-131) was 4 and the MIC alone (MSSA NRS-131) was 64. For the same molecule, the “Fold reduction (MIC alone vs combo)” value (MSSA ATCC 25923) was 32 fold, the MIC combo (MSSA ATCC 25923) was 4 and the MIC alone (MSSA ATCC 25923) was 128. The “Fold reduction (MIC alone vs combo)” value (MSSA ATCC 49521) was 32 fold, the MIC combo (MSSA ATCC 49521) was 2 and the MIC alone (MSSA ATCC 49521) was 64. For the same molecule, the “Fold reduction (MIC alone vs combo)” value (MSSA Newman) was 32 fold, the MIC combo (MSSA Newman) was 4 and the MIC alone (MSSA Newman) was 128. The “Growth inhibitory concentration lower in combination than as single agent (MIC reduction)” value [6] was 16-32 fold, the “BODIPY-DAP (DAP^BD) binding to MRSA” value (MRSA MW2 [7]) was “promotes” and the “DAP^BD binding to VISA” value (VISA ATCC 700699) was “promotes”. The “Antimicrobial activity in the presence of pulmonary (bovine-derived) surfactant” value [3] was “active”, the MIC increase ([4]; MRSA strain, surfactant concentrations 1.25-15%) was “up to 2 fold” and the “Starting MIC (without surfactant)” value ([4]; MW2, no surfactant, 24 hours at 35° C.) was 32 µg/mL. The “Starting MIC (without surfactant)” value ([5]; ATCC 29213, no surfactant, 24 hours at 35° C.) was 16 µg/mL and the MIC increase ([5]; MSSA strain, surfactant concentrations 1.25-15%) was “up to 2 fold”.
